Reference: patent US6323185

How the values were obtained:
[1] = target: T1, SIV integrase (Simian immunodeficiency virus) (UniProt P05897); test: inhibition; settings: PS at first and last internucleoside linkages, 3'-OH; 3'-processing
T1 sequence: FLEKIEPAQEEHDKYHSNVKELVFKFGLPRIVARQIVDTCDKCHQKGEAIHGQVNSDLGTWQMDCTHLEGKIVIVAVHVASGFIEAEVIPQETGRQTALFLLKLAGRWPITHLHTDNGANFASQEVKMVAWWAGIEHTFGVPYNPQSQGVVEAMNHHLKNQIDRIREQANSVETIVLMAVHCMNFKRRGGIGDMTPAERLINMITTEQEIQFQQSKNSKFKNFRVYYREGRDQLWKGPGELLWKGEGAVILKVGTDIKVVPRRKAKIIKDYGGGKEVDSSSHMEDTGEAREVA

[2] = target: HIV-1 integrase wild-type (IN1-288) (HIV-1) (UniProt P12497); test: inhibition; settings: 3'-processing

“GTGGTGGGTGGGTGGGT [T30177 (AR177, Zintevir)]” showed an IC50 [1] of 420 nM.

“TCTTCCTCTCTCTACCCACGCTCIC [T30531 antisense GEM91 variant PT]” was tested, and the IC50 ([2]; all PS, strand transfer 0.036 uM) was 30 nM.

Work on “TCTTCCTCTCTCTACCCACGCTCIC [T30658 antisense GEM91 variant PD]” yielded an IC50 ([2]; all phosphodiester, strand transfer >0.5 uM) greater than 500 nM.

In the case of “TCTTCCTCTCTCTACCCACGCTCIC [T30662 antisense GEM91 variant pPT]”, the IC50 ([2]; PS at first and last linkages, strand transfer >0.5 uM) is reported as greater than 500 nM.
